This is an account of results in article PMC6468306 (Nucleic Acids Research, 2019).

Assay [1] concerns the target T1, ubiquitin (Ub) (mouse, UniProt P0CG49 1-76). Description: pull-down.
The target in assay [2] is T1, ubiquitin (Ub). The assay can be described thus: SPR.
Assay [3] addresses T1, ubiquitin (Ub). Description: SPR. The source holds these as a separate data set.
Assay [4] has as its target M1-linked diUb (M1-Ub2) (human, UniProt P0CG47). The assay can be described thus: pull-down.
In assay [5] the target is K48-Ub2 synthesized from K48R Ub and D77 Ub (for crystallization) (mouse, UniProt P0CG49, K48R | D77). The assay can be described thus: crystal structure.

Read-outs that look alike come from different tables or passages of the source.

B1: GST-fused CSB C-terminal region (residues 1412-1493) (domain or fragment)
chain: LQEASALLPTTEHDDLLVEMRNFIAFQAHTDGQASTREILQEFESKLSASQSCVFRELLRNLCTFHRTSGGEGIWKLKPEYC
Take B1: in assay [1], the binding result is “binds”.

B2: GST-fused CSB C-terminal region (residues 1386-1493) (domain or fragment)
chain: SSSLLAKMRARNHLILPERLESESGHLQEASALLPTTEHDDLLVEMRNFIAFQAHTDGQASTREILQEFESKLSASQSCVFRELLRNLCTFHRTSGGEGIWKLKPEYC
Turning to B2, the binding result in assay [1] is on record as “binds”.

B3: GST-fused CSB WHD (residues 1401-1493), wild type (domain or fragment)
chain: LPERLESESGHLQEASALLPTTEHDDLLVEMRNFIAFQAHTDGQASTREILQEFESKLSASQSCVFRELLRNLCTFHRTSGGEGIWKLKPEYC
For the molecule B3, the Kd came out at 35.6 µM in assay [2] and 36.1 µM in assay [3]. Moreover, in assay [4], the binding result is “binds”.

B4: CSB WHD (residues 1401-1493) with the Q1413R variant allele, GST cleaved (domain or fragment)
chain: LPERLESESGHLREASALLPTTEHDDLLVEMRNFIAFQAHTDGQASTREILQEFESKLSASQSCVFRELLRNLCTFHRTSGGEGIWKLKPEYC
Consider B4, for which the binding result in assay [5] is given as “binds”.

B5: GST-fused CSB WHD, Q1413R variant allele (domain or fragment)
chain: LPERLESESGHLREASALLPTTEHDDLLVEMRNFIAFQAHTDGQASTREILQEFESKLSASQSCVFRELLRNLCTFHRTSGGEGIWKLKPEYC
For the molecule B5, the Kd in assay [2] came out at 51.5 µM.
